In the supplement of paper PMC5998384:

Legend:
[1] = system: HeLa Kyoto; experiment: melting temperature (median over replicates), in situ; higher = more thermally stable
[2] = system: HeLa Kyoto; experiment: thermal stability score vs G1/S (z-score of summed log2 fold changes over temperatures); higher = more thermally stable than in G1/S
[3] = system: HeLa Kyoto; experiment: solubility change mitosis vs G1/S (difference of NP-40 vs SDS log2 ratios) (log2 ratio difference); higher = more soluble in mitosis
[4] = system: HeLa Kyoto; experiment: solubility in G1/S (NP-40 vs SDS abundance) (log2 ratio); higher = more soluble; conditions: cell cycle stage: G1/S
[5] = cell cycle stage: early G1 (4.5 h after nocodazole release)
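Wherever melting temperature (median over replicates), in situ is given: HeLa Kyoto cells synchronized by double thymidine or nocodazole block, proteins quantified by TMT10plex mass spectrometry, three independent biological replicates.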
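Wherever solubility change mitosis vs G1/S (difference of NP-40 vs SDS log2 ratios) is given: synchronized HeLa Kyoto cells (double thymidine block for G1/S, nocodazole release for mitosis), protein amounts in NP-40 versus SDS lysates quantified by mass spectrometry, three biological replicates.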
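Wherever solubility in G1/S (NP-40 vs SDS abundance) is given: HeLa Kyoto cells arrested at G1/S by double thymidine block, proteins quantified by TMT10plex mass spectrometry in mild NP-40 versus SDS extracts, three biological replicates.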
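Wherever thermal stability score vs G1/S (z-score of summed log2 fold changes over temperatures) is given: synchronized HeLa Kyoto cells, proteins quantified by TMT10plex mass spectrometry, three biological replicates, mitosis taken 0.5 h after nocodazole release, G1/S directly after double thymidine block.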

Sequence of UAP1 (chain, as listed by the source): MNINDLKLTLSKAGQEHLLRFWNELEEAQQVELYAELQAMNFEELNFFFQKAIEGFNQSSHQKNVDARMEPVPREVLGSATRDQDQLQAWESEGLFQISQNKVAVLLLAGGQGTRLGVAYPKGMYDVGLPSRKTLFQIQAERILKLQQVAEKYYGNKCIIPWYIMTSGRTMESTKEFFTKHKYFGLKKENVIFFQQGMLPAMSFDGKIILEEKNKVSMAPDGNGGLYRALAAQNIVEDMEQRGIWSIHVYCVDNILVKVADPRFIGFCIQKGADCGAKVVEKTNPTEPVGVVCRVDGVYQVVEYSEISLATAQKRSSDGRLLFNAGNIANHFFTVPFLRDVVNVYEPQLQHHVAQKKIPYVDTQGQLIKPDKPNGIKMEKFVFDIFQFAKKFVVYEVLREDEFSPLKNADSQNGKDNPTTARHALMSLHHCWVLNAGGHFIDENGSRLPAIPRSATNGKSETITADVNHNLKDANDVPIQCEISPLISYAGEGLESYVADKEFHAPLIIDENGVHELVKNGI

Q: How did the melting temperature ([1]; cell cycle stage: G1/S) turn out when “MLTKFETKSARVKGLSFHPKRPWILTSLHNGVIQLWDYRMCTLIDKFDEHDGPVRGIDFHKQQPLFVSGGDDYKIKVWNYKLRRCLFTLLGHLDYIRTTFFHHEYPWILSASDDQTIRVWNWQSRTCVCVLTGHNHYVMCAQFHPTEDLVVSASLDQTVRVWDISGLRKKNLSPGAVESDVRGITGVDLFGTTDAVVKHVLEGHDRGVNWAAFHPTMPLIVSGADDRQVKIWRMNESKAWEVDTCRGHYNNVSCAVFHPRQELILSNSEDKSIRVWDMSKRTGVQTFRRDHDRFWVLAAHPNLNLFAAGHDGGMIVFKLERERPAYAVHGNMLHYVKDRFLRQLDFNSSKDVAVMQLRSGSKFPVFNMSYNPAENAVLLCTRASNLENSTYDLYTIPKDADSQNPDAPEGKRSSGLTAVWVARNRFAVLDRMHSLLIKNLKNEITKKVQVPNCDEIFYAGTGNLLLRDADSITLFDVQQKRTLASVKISKVKYVIWSADMSHVALLAKHAIVICNRKLDALCNIHENIRVKSGAWDESGVFIYTTSNHIKYAVTTGDHGIIRTLDLPIYVTRVKGNNVYCLDRECRPRVLTIDPTEFKFKLALINRKYDEVLHMVRNAKLVGQSIIAYLQKKGYPEVALHFVKDEKTRFSLALECGNIEIALEAAKALDDKNCWEKLGEVALLQGNHQIVEMCYQRTKNFDKLSFLYLITGNLEKLRKMMKIAEIRKDMSGHYQNALYLGDVSERVRILKNCGQKSLAYLTAATHGLDEEAESLKETFDPEKETIPDIDPNAKLLQPPAPIMPLDTNWPLLTVSKGFFEGTIASKGKGGALAADIDIDTVGTEGWGEDAELQLDEDGFVEATEGLGDDALGKGQEEGGGWDVEEDLELPPELDISPGAAGGAEDGFFVPPTKGTSPTQIWCNNSQLPVDHILAGSFETAMRLLHDQVGVIQFGPYKQLFLQTYARGRTTYQALPCLPSMYGYPNRNWKDAGLKNGVPAVGLKLNDLIQRLQLCYQLTTVGKFEEAVEKFRSILLSVPLLVVDNKQEIAEAQQLITICREYIVGLSVETERKKLPKETLEQQKRICEMAAYFTHSNLQPVHMILVLRTALNLFFKLKNFKTAATFARRLLELGPKPEVAQQTRKILSACEKNPTDAYQLNYDMHNPFDICAASYRPIYRGKPVEKCPLSGACYSPEFKGQICRVTTVTEIGKDVIGLRISPLQFR [COPA]” was run?
A: 51 °C

Q: And the melting temperature ([1]; cell cycle stage: mitosis)?
A: 50.3 °C

Q: What about the thermal stability score [2, 5] of the same substance?
A: -0.819

Q: What about the thermal stability score ([2]; cell cycle stage: mitosis) of the same substance?
A: -0.346

Q: And the “solubility change mitosis (log2)” value [3]?
A: -0.16

Q: And the “solubility in G1/S (log2)” value [4]?
A: -0.365

Q: Which melting temperature ([1]; cell cycle stage: G1/S) does the source give for “MKGMSHEPKSPSLGMLSTATRTTATVNPLTPSPLNGALVPSGSPATSSALSAQAAPSSSFAAALRKLAKQAEEPRGSSLSSESSPVSSPATNHSSPASTPKRVPMGPIIVPPGGHSVPSTPPVVTIAPTKTVNGVWRSESRQDAGSRSSSGGRERLIVEPPLPQEKAGGPAIPSHLLSTPYPFGLSPSSVVQDSRFPPLNLQRPVHHVVPPSTVTEDYLRSFRPYHTTDDLRMSSLPPLGLDPATAAAYYHPSYLAPHPFPHPAFRMDDSYCLSALRSPFYPIPTPGSLPPLHPSAMHLHLSGVRYPPELSHSSLAALHSERMSGLSAERLQMDEELRREREREREREREREADREREKEREREREKEREQEKEREREKERERELERQREQRAREKELLAAKALEPSFLPVAELHGLRGHATEERGKPSEQLTPTRAEKLKDAGLQAPKPVQHPLHPVPTPHHTVPSLISNHGIFSLPSSSAATALLIQRTNEEEKWLARQRRLRQEKEDRQSQVSEFRQQVLEQHLDMGRPPVPAEAEHRPESTTRPGPNRHEPGGRDPPQHFGGPPPLISPKPQLHAAPTALWNPVSLMDNTLETRRAESHSLHSHPAAFEPSRQAAVPLVKVERVFCPEKAEEGPRKREPAPLDKYQPPPPPPREGGSLEHQPFLPGPGPFLAELEKSTQTILGQQRASLPQAATFGELSGPLKPGSPYRPPVPRAPDPAYIYDEFLQQRRRLVSKLDLEERRRREAQEKGYYYDLDDSYDESDEEEVRAHLRCVAEQPPLKLDTSSEKLEFLQLFGLTTQQQKEELVAQKRRKRRRMLRERSPSPPTIQSKRQTPSPRLALSTRYSPDEMNNSPNFEEKKKFLTIFNLTHISAEKRKDKERLVEMLRAMKQKALSAAVADSLTNSPRDSPAVSLSEPATQQASLDVEKPVGVAASLSDIPKAAEPGKLEQVRPQELSRVQELAPASGEKARLSEAPGGKKSLSMLHYIRGAAPKDIPVPLSHSTNGKSKPWEPFVAEEFAHQFHESVLQSTQKALQKHKGSVAVLSAEQNHKVDTSVHYNIPELQSSSRAPPPQHNGQQEPPTARKGPPTQELDRDSEEEEEEDDEDGEDEEEVPKRKWQGIEAVFEAYQEHIEEQNLERQVLQTQCRRLEARHYSLSLTAEQLSHSVAELRSQKQKMVSERERLQAELDHLRKCLALPAMHWPRGYLKGYPR [GSE1]” here?
A: 50.8 °C

Q: And the melting temperature ([1]; cell cycle stage: mitosis)?
A: 49.9 °C

Q: And the thermal stability score [2, 5]?
A: -0.121

Q: What about the thermal stability score ([2]; cell cycle stage: mitosis) of the same substance?
A: 0.454

Q: And the “solubility change mitosis (log2)” value [3]?
A: 0.0661

Q: And the “solubility in G1/S (log2)” value [4]?
A: 0.0704

Q: “MAAALRVAAVGARLSVLASGLRAAVRSLCSQATSVNERIENKRRTALLGGGQRRIDAQHKRGKLTARERISLLLDPGSFVESDMFVEHRCADFGMAADKNKFPGDSVVTGRGRINGRLVYVFSQDFTVFGGSLSGAHAQKICKIMDQAITVGAPVIGLNDSGGARIQEGVESLAGYADIFLRNVTASGVIPQISLIMGPCAGGAVYSPALTDFTFMVKDTSYLFITGPDVVKSVTNEDVTQEELGGAKTHTTMSGVAHRAFENDVDALCNLRDFFNYLPLSSQDPAPVRECHDPSDRLVPELDTIVPLESTKAYNMVDIIHSVVDEREFFEIMPNYAKNIIVGFARMNGRTVGIVGNQPKVASGCLDINSSVKGARFVRFCDAFNIPLITFVDVPGFLPGTAQEYGGIIRHGAKLLYAFAEATVPKVTVITRKAYGGAYDVMSSKHLCGDTNYAWPTAEIAVMGAKGAVEIIFKGHENVEAAQAEYIEKFANPFPAAVRGFVDDIIQPSSTRARICCDLDVLASKKVQRPWRKHANIPL [PCCB]” was tested. Which melting temperature ([1]; cell cycle stage: G1/S) did it give?
A: 54.3 °C

Q: And the melting temperature ([1]; cell cycle stage: mitosis)?
A: 54.9 °C

Q: What about the thermal stability score [2, 5] of the same substance?
A: -1.53

Q: What about the thermal stability score ([2]; cell cycle stage: mitosis) of the same substance?
A: -1.91

Q: What about the “solubility change mitosis (log2)” value [3] of the same substance?
A: -0.114

Q: And the “solubility in G1/S (log2)” value [4]?
A: -0.114

Q: What does the source list for “MGRKLDPTKEKRGPGRKARKQKGAETELVRFLPAVSDENSKRLSSRARKRAAKRRLGSVEAPKTNKSPEAKPLPGKLPKGISAGAVQTAGKKGPQSLFNAPRGKKRPAPGSDEEEEEEDSEEDGMVNHGDLWGSEDDADTVDDYGADSNSEDEEEGEALLPIERAARKQKAREAAAGIQWSEEETEDEEEEKEVTPESGPPKVEEADGGLQINVDEEPFVLPPAGEMEQDAQAPDLQRVHKRIQDIVGILRDFGAQREEGRSRSEYLNRLKKDLAIYYSYGDFLLGKLMDLFPLSELVEFLEANEVPRPVTLRTNTLKTRRRDLAQALINRGVNLDPLGKWSKTGLVVYDSSVPIGATPEYLAGHYMLQGASSMLPVMALAPQEHERILDMCCAPGGKTSYMAQLMKNTGVILANDANAERLKSVVGNLHRLGVTNTIISHYDGRQFPKVVGGFDRVLLDAPCSGTGVISKDPAVKTNKDEKDILRCAHLQKELLLSAIDSVNATSKTGGYLVYCTCSITVEENEWVVDYALKKRNVRLVPTGLDFGQEGFTRFRERRFHPSLRSTRRFYPHTHNMDGFFIAKFKKFSNSIPQSQTGNSETATPTNVDLPQVIPKSENSSQPAKKAKGAAKTKQQLQKQQHPKKASFQKLNGISKGADSELSTVPSVTKTQASSSFQDSSQPAGKAEGIREPKVTGKLKQRSPKLQSSKKVAFLRQNAPPKGTDTQTPAVLSPSKTQATLKPKDHHQPLGRAKGVEKQQLPEQPFEKAAFQKQNDTPKGPQPPTVSPIRSSRPPPAKRKKSQSRGNSQLLLS [NOP2]”?
A: melting temperature ([1]; cell cycle stage: G1/S): 55.4 °C; melting temperature ([1]; cell cycle stage: mitosis): 53.9 °C; thermal stability score [2, 5]: -0.377; thermal stability score ([2]; cell cycle stage: mitosis): -6.17; solubility change mitosis (log2) [3]: 0.976; solubility in G1/S (log2) [4]: -2.12

Q: With “MSDIGDWFRSIPAITRYWFAATVAVPLVGKLGLISPAYLFLWPEAFLYRFQIWRPITATFYFPVGPGTGFLYLVNLYFLYQYSTRLETGAFDGRPADYLFMLLFNWICIVITGLAMDMQLLMIPLIMSVLYVWAQLNRDMIVSFWFGTRFKACYLPWVILGFNYIIGGSVINELIGNLVGHLYFFLMFRYPMDLGGRNFLSTPQFLYRWLPSRRGGVSGFGVPPASMRRAADQNGGGGRHNWGQGFRLGDQ [DERL1]” as the substance, how does the melting temperature ([1]; cell cycle stage: G1/S) read?
A: 51.6 °C

Q: What about the melting temperature ([1]; cell cycle stage: mitosis) of the same substance?
A: 55.3 °C

Q: And the thermal stability score [2, 5]?
A: -0.109

Q: What about the thermal stability score ([2]; cell cycle stage: mitosis) of the same substance?
A: -0.882

Q: And the “solubility change mitosis (log2)” value [3]?
A: -0.273

Q: What about the “solubility in G1/S (log2)” value [4] of the same substance?
A: 0.00239

Q: Which melting temperature ([1]; cell cycle stage: G1/S) does the source give for UAP1 here?
A: 53.2 °C

Q: What about the melting temperature ([1]; cell cycle stage: mitosis) of the same substance?
A: 53.3 °C

Q: What about the thermal stability score [2, 5] of the same substance?
A: 0.837

Q: What about the thermal stability score ([2]; cell cycle stage: mitosis) of the same substance?
A: 1.62

Q: What about the “solubility change mitosis (log2)” value [3] of the same substance?
A: -0.119

Q: What about the “solubility in G1/S (log2)” value [4] of the same substance?
A: 0.216

Q: How did the melting temperature ([1]; cell cycle stage: G1/S) turn out when “MDTMMLNVRNLFEQLVRRVEILSEGNEVQFIQLAKDFEDFRKKWQRTDHELGKYKDLLMKAETERSALDVKLKHARNQVDVEIKRRQRAEADCEKLERQIQLIREMLMCDTSGSIQLSEEQKSALAFLNRGQPSSSNAGNKRLSTIDESGSILSDISFDKTDESLDWDSSLVKTFKLKKREKRRSTSRQFVDGPPGPVKKTRSIGSAVDQGNESIVAKTTVTVPNDGGPIEAVSTIETVPYWTRSRRKTGTLQPWNSDSTLNSRQLEPRTETDSVGTPQSNGGMRLHDFVSKTVIKPESCVPCGKRIKFGKLSLKCRDCRVVSHPECRDRCPLPCIPTLIGTPVKIGEGMLADFVSQTSPMIPSIVVHCVNEIEQRGLTETGLYRISGCDRTVKELKEKFLRVKTVPLLSKVDDIHAICSLLKDFLRNLKEPLLTFRLNRAFMEAAEITDEDNSIAAMYQAVGELPQANRDTLAFLMIHLQRVAQSPHTKMDVANLAKVFGPTIVAHAVPNPDPVTMLQDIKRQPKVVERLLSLPLEYWSQFMMVEQENIDPLHVIENSNAFSTPQTPDIKVSLLGPVTTPEHQLLKTPSSSSLSQRVRSTLTKNTPRFGSKSKSATNLGRQGNFFASPMLK [RACGAP1]” was run?
A: 48.1 °C

Q: And the melting temperature ([1]; cell cycle stage: mitosis)?
A: 49.1 °C

Q: What about the thermal stability score [2, 5] of the same substance?
A: 1.13

Q: And the thermal stability score ([2]; cell cycle stage: mitosis)?
A: 1.61

Q: What about the “solubility change mitosis (log2)” value [3] of the same substance?
A: 0.141

Q: And the “solubility in G1/S (log2)” value [4]?
A: -0.106

Q: What does the source list for “MPRARKGNTLRKGGQRRGGGARSSAQADSGSSDDEAASEARSTASECPSLLSTTAEDSLGGDVVDEQGQQEDLEEKLKEYVDCLTDKSAKTRQGALESLRLALASRLLPDFLLERRLTLADALEKCLKKGKGEEQALAAAVLGLLCVQLGPGPKGEELFHSLQPLLVSVLSDSTASPAARLHCASALGLGCYVAAADIQDLVSCLACLESVFSRFYGLGGSSTSPVVPASLHGLLSAALQAWALLLTICPSTQISHILDRQLPRLPQLLSSESVNLRIAAGETIALLFELARDLEEEFVYEDMEALCSVLRTLATDSNKYRAKADRRRQRSTFRAVLHSVEGGECEEEIVRFGFEVLYMDSWARHRIYAAFKEVLGSGMHHHLQNNELLRDIFGLGPVLLLDATALKACKVPRFEKHLYNAAAFKARTKARSRVRDKRADIL [IFRD2]”?
A: melting temperature ([1]; cell cycle stage: G1/S): 56.3 °C; melting temperature ([1]; cell cycle stage: mitosis): 54.5 °C; thermal stability score [2, 5]: -2.6; thermal stability score ([2]; cell cycle stage: mitosis): -1.01; solubility change mitosis (log2) [3]: 0.211; solubility in G1/S (log2) [4]: -0.734
